Laboratory results as given in patent publication US20190017096A1.

Biological target: Rab6a (Ras-related protein Rab-6A) (Homo sapiens (Human)) (UniProt P20340)
Assay: cell-based or functional assay

UniProt P20340, sequence (P20340 whole entry): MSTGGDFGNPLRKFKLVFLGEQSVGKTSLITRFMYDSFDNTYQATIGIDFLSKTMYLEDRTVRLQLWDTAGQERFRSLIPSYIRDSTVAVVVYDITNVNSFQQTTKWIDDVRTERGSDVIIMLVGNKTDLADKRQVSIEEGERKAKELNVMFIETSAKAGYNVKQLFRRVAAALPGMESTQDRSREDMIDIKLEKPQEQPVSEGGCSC

Substance: human Rab escort protein 1 (REP1) (from UniProt P24386 1-653)
- biotinylated substrate with Rab6a compared to Rab27a (in vitro prenylation, WB; untransduced 293 lysate, endogenous REP1, FIG. 9): 2.5 fold
- strength of the WB signal for biotinylated Rab6a (FIG. 3) compared to biotinylated Rab27a (FIG. 2), AAV-REP1 transduced cells: 10 fold

Substance: fish REP1
- band intensity of biotinylated Rab6a (FIG. 3) compared to biotinylated Rab27a (FIG. 2), positive controls spiked with fish REP1: 100 fold
